Results from the RNAGym collection of RNA variant scans (doi:10.7554/elife.80360).

B1: HDV Ribozyme (parent)
chain: GGCCGGCAUGGUCCCAGCCUCCUCGCUGGCGCCGGCUGGGCAACAUUCCGAGGGGACCGUCCCCUCGGUAAUGGCGAAUGGGACCCA

Variants of: B1
Experiment: self-cleavage, relative activity (ratio to wild type); higher = more cleavage; co-transcriptional

Variant | self-cleavage
GGCCGGCAUGGUCCCAGCCUCCUCGCUGGCGCCGGCUGGGCAACCUUCCGAGGGGACCGUCCCCUUGGUAAUGGCGAAUGGGACCCA [A45C C66U] | 0.8
GGCCGGCAUGGUCCCAGCCUCCUCGCUGGCGCCGGCUGGGCAACAUUCCGAGGGGACCGUCCCCUCGGUACUGCCGAAUGGGACCCA [A71C G74C] | 0.128
GGCCGGCAUGGUCCCAGCCUCCUCGCUGGCGCCGGCUGGGCAACAUUCCGAGGGGACCGUCCCCUCGGGAAUGCCGAAUGGGACCCA [U69G G74C] | 0.383
GGCCGGCAUGGUCCCAGCCUCCUCGCUGGCGCCGGCUGGGCAACAUUCCGAGGGGACCGUCCCUUCGAUAAUGGCGAAUGGGACCCA [C64U G68A] | 0.821
GGCCGGCAUGGUCCCAGCCUCCUCGUUGGCGCCGGCUGGGCAACAUUCCGAGGGGACCGUGCCCUCGGUAAUGGCGAAUGGGACCCA [C26U C61G] | 1.19
GGCCGGCAUGGUCCCAGCCUCCUCGCUGGCGCCGGCUGGACAACAUUCCGAGGGGACCGUCCCCUCGGUAAUGGCGAAUGGGGCCCA [G40A A83G] | 0.573
GGCCGGCAUGGACCCAGCCUCCUCGCUGGCGCCGGCUGGGCAACAUUCCGAGGGGACCGUCCCCUCGGUAAUGGCGAAUGGGACCAA [U12A C86A] | 0.623
GGCCGGCAUGGUCCCAGCCUCCUCGCUGGCACCGGCUGGCCAACAUUCCGAGGGGACCGUCCCCUCGGUAAUGGCGAAUGGGACCCA [G31A G40C] | 0.144
GGCCGGCAUGGUCCCAGCCUCCUCGCUGGCGCCGGCUGGGCGACAUUCCGAGGGGACCGUCUCCUCGGUAAUGGCGAAUGGGACCCA [A42G C62U] | 0.808
GGCCGGUAUGGUCCCAGCCUCCUCGCUGGCGCCGGCUGGGCAACAUUCCGAGGGGACCGUCCCCUCGAUAAUGGCGAAUGGGACCCA [C7U G68A] | 0.969
GGCCGGCAUGGUCCCAGCCUCCUCGCUGGCGCCGGCUGGCCAACAUUACGAGGGGACCGUCCCCUCGGUAAUGGCGAAUGGGACCCA [G40C C48A] | 0.424
GGCCGGCAUGGUCCCAGCCUCCUCGCUGGCGCCGGCUGGGCAACAUCCGGAGGGGACCGUCCCCUCGGUAAUGGCGAAUGGGACCCA [U47C C49G] | 0.978
GGCCGGCAUGGUCCCAGCCUCCUCGCUGGCGCCGGCUGGGCCACAUUCCGAGGGGACCGUCCCCUCGGAAAUGGCGAAUGGGACCCA [A42C U69A] | 0.156
GGCCGGCAUGGUCCCGGCCUCCUCGCUGGCGCCGGCUAGGCAACAUUCCGAGGGGACCGUCCCCUCGGUAAUGGCGAAUGGGACCCA [A16G G38A] | 0.213
GGCCGGCAUGGUCCCAGUCUCCUCGCUGGCGCCGGCUGGGCAACAUUCCGAGGGGACCGUCCCCUCGGUAAUGGCGAAUGGGACACA [C18U C85A] | 0.574
GGCCGGCAUGGGCCCAGCCUCCUCGCUGGCGCCGGCUGGCCAACAUUCCGAGGGGACCGUCCCCUCGGUAAUGGCGAAUGGGACCCA [U12G G40C] | 0.123
GACCGGCAUGGUCCCAGCCUCCUCGCUGGCGCCGGCUGGGCAACAUUCCGAGGGGACCGUCCCCUCGGUAAUGGCGAAUGAGACCCA [G2A G81A] | 0.0692
GGCCGUCAUGGUCCCAGCCUUCUCGCUGGCGCCGGCUGGGCAACAUUCCGAGGGGACCGUCCCCUCGGUAAUGGCGAAUGGGACCCA [G6U C21U] | 0.122
GGCCGGCAUGGUCCCAGCCUCCUCGCUGGCGCCGGCUGGGCAACAUUCCGAGGGGACCGUCCCCUCGGUAAUGGCCAAUGGGACCGA [G76C C86G] | 0.971
GGCCGGCAUGGUCCCAGCCUCCUCGCUGGCGCCGGCUGGGCAACAUUCCGAGGGGACCGUCCACUCGGUAAUGGCGAAUGGGACCCU [C63A A87U] | 1.03
GGCCGGCAUGGUCCCAGCCUCAUCGCUGGCGCCGGCUGGGCAACAUUCCGAUGGGACCGUCCCCUCGGUAAUGGCGAAUGGGACCCA [C22A G52U] | 0.32
GGCCGGCAUGGUCCCAGCCUCCUCGCUGGCGCCGGCUGGGCAACAUUCCGAGGGGACCGUCCCCUCGGUAAUAGCGACUGGGACCCA [G73A A78C] | 0.265

Variant | self-cleavage
GGCCGGCAUGGUCCCAGCCUCCUCGCUGGCGCCGGCUGGGCAUCAUUCGGAGGGGACCGUCCCCUCGGUAAUGGCGAAUGGGACCCA [A43U C49G] | 0.516
GGCCGGCAGGGUCCCAGCCUCCACGCUGGCGCCGGCUGGGCAACAUUCCGAGGGGACCGUCCCCUCGGUAAUGGCGAAUGGGACCCA [U9G U23A] | 0.782
GGCCGGCAUGGUCCCAGCCUCCUCGCUGGCGCCGGCUGGGCAACAUUCCCAGGGGACCGUCCCCUCAGUAAUGGCGAAUGGGACCCA [G50C G67A] | 0.565
GGCCGGCAUGGUCCCAGCCUCCUCGCUGGCGCCGGCUGGGCAACAUUCCGAGGGGACCGUCCCCUCGGUAAUGGCGAGUGGCACCCA [A78G G82C] | 0.0519
GGCCGGCAUGGUCCCAACCUCCUCGCUGGCGCCGGCUGAGCAACAUUCCGAGGGGACCGUCCCCUCGGUAAUGGCGAAUGGGACCCA [G17A G39A] | 0.095
GGCCGGCAUGCUCCCAGCCUCCUCGCUGGCGCCGGCUGGGCAACAUUCCGAGGGGACCGUCCCCUCGUUAAUGGCGAAUGGGACCCA [G11C G68U] | 0.291
GGCCGGCAUGGUCCCAGCCUCCUCGCUGGCGCCGGCUGGGCAACAUUCCGAGGGGACCGUCCCAUCGGUAAUCGCGAAUGGGACCCA [C64A G73C] | 0.256
GGCCGGCAUGGUCCCAGCCUCCUCGGUGGCGCCGGCUGGGCAUCAUUCCGAGGGGACCGUCCCCUCGGUAAUGGCGAAUGGGACCCA [C26G A43U] | 0.584
GGCCGGCAUGGUCCCAGCCUCCUCGCUGUCGCCGGCUGGGCAACAUUCCGAGGGGACCGUCCCCUCGGUAACGGCGAAUGGGACCCA [G29U U72C] | 0.0811
GGCCGGCAUGGUCCUAGCCUCCUCGCUGGCGUCGGCUGGGCAACAUUCCGAGGGGACCGUCCCCUCGGUAAUGGCGAAUGGGACCCA [C15U C32U] | 0.73
CGCCGGCAUGGUCCCAGCCUCCUCGCUGGCGCCGGCUGGGCAACAUUCCGAGGGGACCGUCACCUCGGUAAUGGCGAAUGGGACCCA [G1C C62A] | 0.101
GGCCGGCAUGGUCCCAGCCUCCUCGCUGGCGCCGGCUGGGCAACAUUCCGAGGGGACCGUCCCUUCGGUAAUGACGAAUGGGACCCA [C64U G74A] | 0.535
GUCCGGCAUGGUCCCAGCCUCCUCGCUGGCGCCGGCUGGGCAACAUUCCGAGAGGACCGUCCCCUCGGUAAUGGCGAAUGGGACCCA [G2U G53A] | 0.0412
GGCCGGCAUGGUCCCAGCCUCCUCGCUGGCGCCGGCGGGGCAACAUUCCGAGGGGACCGUCUCCUCGGUAAUGGCGAAUGGGACCCA [U37G C62U] | 0.308
GUCCGGCAUGGUCCCAGCCUCCUCGCUGGCGCCGGCUGGGCAACAUUCCGACGGGACCGUCCCCUCGGUAAUGGCGAAUGGGACCCA [G2U G52C] | 0.0339
GGCCGGCAGGGUCCCAGCCUCCUCGCUGGCGCCGGCUGGGCAACAUUCCGAGGGGACCGUCCCCUCGGUAAUGGCGCAUGGGACCCA [U9G A77C] | 0.185
GGCCGGCAUGGUCACAGCCUCCUCGCUGGCGCCGGCUGGACAACAUUCCGAGGGGACCGUCCCCUCGGUAAUGGCGAAUGGGACCCA [C14A G40A] | 0.706
GGCCGGCAUGGUCCCAGCCUCCUCGCUGGCGCCGGCUGGGCAACAUACCGAGGGGACCGUCCCCUGGGUAAUGGCGAAUGGGACCCA [U47A C66G] | 0.982
GGCCGGCAUGGUCCCAGCCUCCUCGCUGGCGCCGGCUGGGCAACAUUCCGAGGAGACCGUCCCCUUGGUAAUGGCGAAUGGGACCCA [G54A C66U] | 0.933
GGCCGGCAUGGUCCCAGCCUCCUCGCUGGCGCCGGCUGGGUAACAUUCCGAGGGGACCGUCCCCUCGGUAAUGGCGAAUGGGACCCA [C41U] | 0.979
GGCCGGCGUGGUCCCAGCCUCCUCGCUGGCGCCGGCUGGGCAACAUUCCGUGGGGACCGUCCCCUCGGUAAUGGCGAAUGGGACCCA [A8G A51U] | 1.06
GGCCGGCAUGGUCCCAGCCUCCUCGCUGGCGGCGGCUGGGCAACAUUCCGAGGGGACCGUCCCCUCGGUAAUGGCGAUUGGGACCCA [C32G A78U] | 0.0811

Variant | self-cleavage
GGCCGGCAUGGUCCCAGCCUCCUCGCUGGCGCCGGCUGGGCAACAUUCCGAGGGGACCGCACCCUCGGUAAUGGCGAAUGGGACCCA [U60C C61A] | 0.831
GGCCGGCAUGGUCCCAGCCUCCUCGCUGGCGCCGGCUGGGCAACACUCCGAGGGGACCGUCCCCUCGGUAACGGCGAAUGGGACCCA [U46C U72C] | 0.684
GGCCGGCAUGGUCCCAGCCUCCUCGCUGGCGCCGGCUGGGCAACAUUCCGAGGGGACCGCCCCCUCGGGAAUGGCGAAUGGGACCCA [U60C U69G] | 0.95
GGCCGGCAUGGUCACAGCCUCCUCGCUGGCGCCGGCUGGGCAACAUUCCGAGGGUACCGUCCCCUCGGUAAUGGCGAAUGGGACCCA [C14A G55U] | 0.73
GGCCGGCAUGGUCCCAGCCUCCUCGUUGGCGCCGGCUGGGCAACAUUCCGAGGGGACCGUCCCAUCGGUAAUGGCGAAUGGGACCCA [C26U C64A] | 0.979
GGCCGGCAUGGUCCCAGCCUCCUCGCUGGCGCCGGCUGGAAAACAUUCCGAGGGGACCGUCCCCUCGGUAAUGGCGAAUGGGACCCA [G40A C41A] | 0.893
GGCCGGCAUGGUCCCAGCCUCCUCGCUGGCGCCGGCUGGGCAACAUUCCGAGGGGACCCUUCCCUCGGUAAUGGCGAAUGGGACCCA [G59C C61U] | 1.01
GGCCGGCAUGGUCCCAGCCUGCUCGCUGGCGCCGGCUGGGCAACAUUCCGAGGGGACCGUCCCCUCGGUAAUGGCGAAUGGGACCCA [C21G] | 0.0702
GGCCGGCAUGGUCCCAGCCUCCUCUCUGGCGCCGGCUGGGCACCAUUCCGAGGGGACCGUCCCCUCGGUAAUGGCGAAUGGGACCCA [G25U A43C] | 0.147
GGCCGGCAUGUUCCCAGCCUCCUCGCUGGCGCCGGCUGGGCAACAUUCCGAGGGGACCGUCCCCUCGGUGAUGGCGAAUGGGACCCA [G11U A70G] | 0.201
GGCCGGCAUUGUCCCAGGCUCCUCGCUGGCGCCGGCUGGGCAACAUUCCGAGGGGACCGUCCCCUCGGUAAUGGCGAAUGGGACCCA [G10U C18G] | 0.111
GGCCGGCAUGGUCCCAGCCUCCUCCCUGGCGCCGGCUGGGCAACAUUCCGAGGGGACCGUCCUCUCGGUAAUGGCGAAUGGGACCCA [G25C C63U] | 0.0739
GGCCGGCAUGGUCCCAGCCUCCUCGCUGGCGCAGGCUGGGCAACAUUCCGAGGGGACCGUCCCCUCGGUAAUAGCGAAUGGGACCCA [C33A G73A] | 0.147
GGCCGGCAUGGUCCCAGUCUCCUCGCUGGCGCCGGCUGGGCAACAUUCCGAGGGGACCGUCCCGUCGGUAAUGGCGAAUGGGACCCA [C18U C64G] | 0.736
GGCCGGCAUGGGCCCAGCCUCCUCGCUGGCGCCGCCUGGGCAACAUUCCGAGGGGACCGUCCCCUCGGUAAUGGCGAAUGGGACCCA [U12G G35C] | 0.151
GGCCGGCAUGGUCCCAGCCCCCUCGCUGGCGCCGGCUGGGCAACAUUCCGAGGGGACCGUCCCCUCGGUAAUGGCGAAUGGGACCCA [U20C] | 0.129
GGCCGGCAUGUUCCCAGCCUCCUCGCUGGCGCCGGCUUGGCAACAUUCCGAGGGGACCGUCCCCUCGGUAAUGGCGAAUGGGACCCA [G11U G38U] | 0.0961
GGCCGGCAUGGUCCCAGCCUCCUCGCUGGCGCCGGCUUGGCAACAUUCCGAGGGGACCGUCCCCUCGGAAAUGGCGAAUGGGACCCA [G38U U69A] | 0.256
UGCCGGCAUGGUCCCAGCCUCCUCGCUGGCGCCGGCUGGGCAACAUUCCGAGUGGACCGUCCCCUCGGUAAUGGCGAAUGGGACCCA [G1U G53U] | 0.355
AGCCGGCAUGGUCCCAGCCUCUUCGCUGGCGCCGGCUGGGCAACAUUCCGAGGGGACCGUCCCCUCGGUAAUGGCGAAUGGGACCCA [G1A C22U] | 0.0779
